Patent publication US20210403552A1 (SHANGHAI GENBASE BIOTECHNOLOGY, published 2021)

Legend:
human CLDN18.2 [1] = target: human CLDN18.2 (human); experiment: cell-based or functional assay
human CLDN18.2 [2] = target: T1, human CLDN18.2 (human); experiment: imaging cytometry (% fluorescent cells), HEK293T-hCLDN18.2 cells
T1 construct: over-expressed on HEK293T or OCUM-1 cells by lentivirus; KATO-III and NUGC4 gastric cancer cells express it naturally; also called hCLDN18.2; hCLDNA18.2
Procedure: (§1) 10,000 cells were plated in 100 μL of DMEM containing 10% FBS per well in a flat-bottomed 96-well plate. After the cells adhered or were settled to the bottom of the wells overnight, the supernatant was removed on the next day. 3-Fold gradient dilution of antibody was performed by diluting 1/3 of the total volume (i.e., 100 μL) in 200 μL of DMEM. 100 μL of the diluted antibody (the supernatants of fused clones or subclones was used in the screening) was added to each well of the cell plate, 100 μL of DMEM was added to the corresponding negative control well, and incubation was carried out for 1 hour at room temperature. After removing the supernatant, 100 μL of secondary antibody (5 μg/mL, diluted in DMEM) was added to each well, and incubated at room temperature for 0.5 hours. The supernatant was removed after staining, followed by washing with PBS once. 100 μL of PBS was added to each well, and then reading was carried out on the cytometer.
A full-field scanning cytometer (Nexcelom, Celigo® Image Cytometer) was used to measure the readings of the experimental plate. During the measurement, high-speed scanning imaging of the cells in the well was simultaneously performed in the green fluorescent channel corresponding to the secondary antibody and in the bright field channel. The cells that bound the antibody were counted in the image obtained from the green fluorescent channel under the parameters set in accordance with the morphology and fluorescence intensity of the fluorescently labeled cells, and the adhered cells were counted in the image obtained from the bright field channel under the parameters set in accordance with the morphology of the cells. […] The data analysis was performed using GraphPad.

human CLDN18.2 [3] = target: T1, human CLDN18.2; experiment: cell-based or functional assay; remark: listed apart in the source
human CLDN18.1 = target: T2, human CLDN18.1 (human, UniProt P56856 1-261); experiment: imaging cytometry, CHOS-hCLDN18.1 cells
T2 construct: over-expressed on HEK293T or CHOS cells by lentivirus; also called hCLDN18.1
T2 sequence (P56856 whole entry): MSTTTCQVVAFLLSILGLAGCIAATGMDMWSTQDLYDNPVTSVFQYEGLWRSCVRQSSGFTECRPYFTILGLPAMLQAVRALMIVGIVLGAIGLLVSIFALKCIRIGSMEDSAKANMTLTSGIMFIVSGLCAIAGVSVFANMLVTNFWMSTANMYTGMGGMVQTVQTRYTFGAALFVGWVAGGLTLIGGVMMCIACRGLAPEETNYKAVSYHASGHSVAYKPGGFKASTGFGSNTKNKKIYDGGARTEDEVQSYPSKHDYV
From the text: (§2) HEK293T-hCLDN18.2 and OCUM-1-hCLDN18.2 expressing human CLDN18.2 (hCLDN18.2), or HEK293T-mCLDN18.2 expressing mouse CLDN18.2 (mCLDN18.2) and the corresponding negative control cell line HEK293T were used; or HEK293T-hCLDN18.1 and CHOS-hCLDN18.1 expressing human CLDN18.1 (hCLDN18.1) were used. DyLight488 goat anti-mouse IgG (Abcam, Catalog No. ab97015) or DyLight488 goat anti-human IgG (Abcam, Catalog No. ab97003) was used as secondary antibody. Binding curves were generated by using the following method.
as §1
(§3) A full-field scanning cytometer (Nexcelom, Celigo® Image Cytometer) was used to measure the readings of the experimental plate. During the measurement, high-speed scanning imaging of the cells in the well was simultaneously performed in the green fluorescent channel corresponding to the secondary antibody and in the bright field channel. The cells that bound the antibody were counted in the image obtained from the green fluorescent channel under the parameters set in accordance with the morphology and fluorescence intensity of the fluorescently labeled cells, and the adhered cells were counted in the image obtained from the bright field channel under the parameters set in accordance with the morphology of the cells.

mouse CLDN18.2 = target: T3, mouse CLDN18.2 (mouse, UniProt P56857 10-264); experiment: imaging cytometry (% fluorescent cells), HEK293-mCLDN18.2 cells
T3 construct: over-expressed on HEK293T cells by lentivirus; also called mCLDN18.2; murine CLDN18.2
T3 chain: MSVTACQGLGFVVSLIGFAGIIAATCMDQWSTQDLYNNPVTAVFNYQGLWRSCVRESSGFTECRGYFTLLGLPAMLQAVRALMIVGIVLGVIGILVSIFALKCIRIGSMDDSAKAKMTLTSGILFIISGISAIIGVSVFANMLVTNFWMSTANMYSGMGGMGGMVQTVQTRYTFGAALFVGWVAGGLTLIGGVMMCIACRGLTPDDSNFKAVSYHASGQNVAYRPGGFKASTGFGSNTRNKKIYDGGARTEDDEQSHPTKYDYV
From the text: as §2, §1, §3

human CLDN18.2 [4] = target: T1, human CLDN18.2; experiment: imaging cytometry (% fluorescent cells), OCUM1-hCLDN18.2 cells
From the text: as §2, §1, §3

human CLDN18.2 [5] = target: T1, human CLDN18.2; experiment: imaging cytometry (% fluorescent cells), HEK293-hCLDN18.2 cells
From the text: as §2, §1, §3

B1: 9F3-chIgG1 (antibody, V domains shown)
VH: EVRLQQSGPELVKPGASVKIPCKASGYKFTDYNMDWVKQSHGKSLEWIGEINPNNGGTIYNQKFKGKATLTVDKSSSTAYMELRSLTSEDTAVYYCARIYYGNSFAYWGQGTLVTVSS
VL: DIVMTQSPSSLTVTAGEKVTMSCKSSQSLLNSGNLKNYLTWYQQKPGQPPKLLIYWASTRESGVPDRFTGSGSGTDFTLTISSVQAEDLAVYYCQNDYFYPLTFGAGTKLEIKR
notes: human-mouse chimeric antibody, human IgG1/kappa constant regions
- CDC EC50, HEK293T-hCLDN18.2 target cells, human serum (human CLDN18.2 [1]): 1.86 µg/mL
- EC50 (human CLDN18.2 [2]): 0.104 µg/mL
- ADCC EC50, HEK293T-hCLDN18.2 target cells, human PBMC effectors (human CLDN18.2 [3]): 0.008 µg/mL

B2: 10B11-chIgG1 (antibody, V domains shown)
VH: QVQMKESGAELVKPGASVKISCKASGYAFSTYWMDWVKQRPGKGLEWIGQIYPGNGDTNYNGKFKGKATLTADKSSSTADMQLSSLTSEDSAVYFCARLGYGNSFTYWGQGTLVTVSA
VL: DIQVTQSPSSLTVTAGEKVTMSCKSSQSLLNSGNQKNYLTWYQQKPGQPPKLLIYWASTRESGVPDRFTGSGFGTDFTLTISSVQAEDLAVYYCQNAYFYPFTFGSGTKLEIKR
notes: as for B1
- CDC EC50, HEK293T-hCLDN18.2 target cells, human serum (human CLDN18.2 [1]): 1.65 µg/mL
- EC50 (human CLDN18.2 [2]): 0.03 µg/mL
- ADCC EC50, HEK293T-hCLDN18.2 target cells, human PBMC effectors (human CLDN18.2 [3]): 0.001 µg/mL

B3: 9F3 (antibody, V domains shown)
VH: EVRLQQSGPELVKPGASVKIPCKASGYKFTDYNMDWVKQSHGKSLEWIGEINPNNGGTIYNQKFKGKATLTVDKSSSTAYMELRSLTSEDTAVYYCARIYYGNSFAYWGQGTLVTVSS
VL: DIVMTQSPSSLTVTAGEKVTMSCKSSQSLLNSGNLKNYLTWYQQKPGQPPKLLIYWASTRESGVPDRFTGSGSGTDFTLTISSVQAEDLAVYYCQNDYFYPLTFGAGTKLEIK
notes: murine monoclonal antibody purified from hybridoma culture supernatant
- binding result (human CLDN18.1): no binding
- EC50 (mouse CLDN18.2): 0.043 µg/mL
- EC50 (human CLDN18.2 [4]): 0.15 µg/mL
- EC50 (human CLDN18.2 [5]): 0.053 µg/mL

B4: 10B11 (antibody, V domains shown)
VH: QVQMKESGAELVKPGASVKISCKASGYAFSTYWMDWVKQRPGKGLEWIGQIYPGNGDTNYNGKFKGKATLTADKSSSTADMQLSSLTSEDSAVYFCARLGYGNSFTYWGQGTLVTVSA
VL: DIQVTQSPSSLTVTAGEKVTMSCKSSQSLLNSGNQKNYLTWYQQKPGQPPKLLIYWASTRESGVPDRFTGSGFGTDFTLTISSVQAEDLAVYYCQNAYFYPFTFGSGTKLEIK
notes: as for B3
- binding result (human CLDN18.1): no binding
- EC50 (mouse CLDN18.2): 0.035 µg/mL
- EC50 (human CLDN18.2 [4]): 0.135 µg/mL
- EC50 (human CLDN18.2 [5]): 0.038 µg/mL

B5: 27B5 (antibody, V domains shown)
VH: QVQLQQPGTELVKPGASVKLSCKASGYTFTSYWMHWVKQRPGQGLEWIGNIHPSNGGSNHNEKFKSKATLTVDKSSSTAYMQLSSLTSEDSAVYYCAPIYYGNSLAYWGHGTLVTVSA
VL: DVVMTQSPSSLTVTAGEKVTMSCKSSQSLLNSGNQKNYLTWYQQKPGQPPKLLLYWASTRESGVPDRFTGSGSGTDFTLTISSVQAEDLAVYYCQNSYFYPFTFGSGTKLEIK
notes: as for B3
- binding result (human CLDN18.1): no binding
- EC50 (mouse CLDN18.2): 0.033 µg/mL
- EC50 (human CLDN18.2 [4]): 0.142 µg/mL
- EC50 (human CLDN18.2 [5]): 0.041 µg/mL

B6: 37B1 (antibody, V domains shown)
VH: EVRLQQSGPELVKPGASVKMSCKASGYSFTDYNMHWVKQSHGKSPEWVGYINPNKGGTGYNQKFKGKATLTVNKSSSTANMELRSLTSEDSAVYYCARIWYGNSFAYWGQGTLVTVSA
VL: DVVMTQSPSSLTVTAGEKVTMSCKSSQSLLNSGNQKNYLTWYQQKPGQPPKLLIYWASTRESGVPDRFTGSGSGTDFTLTISSVQAEDLAVYFCQNDYFYPFTFGSGTKLEIK
notes: as for B3
- binding result (human CLDN18.1): no binding
- EC50 (mouse CLDN18.2): 0.032 µg/mL
- EC50 (human CLDN18.2 [4]): 0.146 µg/mL
- EC50 (human CLDN18.2 [5]): 0.04 µg/mL

B7: 44A8 (antibody, V domains shown)
VH: EVRLQQSGPELVKPGASVKMSCKASGYTFTDYNMHWVKQSHGKSLEWIGYINPKNGGIRYNQKFTGKATLTVNKSSSTAYMELRSLTSEDSAVYYCARGGYYGNTLDNWGQGTSVTVSS
VL: DIVMTQSPSSLTLTAGEKVTMSCKSSQSLLNSGNQKNYLTWYQQKPGQPPKLLIYWASTSESGVPDRFTGSGSGTDFTLTISSVQAEDLAIYYCQNAYFYPWTFGGGTKLEIK
notes: as for B3
- binding result (human CLDN18.1): no binding
- EC50 (mouse CLDN18.2): 0.026 µg/mL
- EC50 (human CLDN18.2 [4]): 0.097 µg/mL
- EC50 (human CLDN18.2 [5]): 0.034 µg/mL
